Measured values taken from the DeepSol protein solubility set.

Assay: soluble on expression in E. coli; label from the status in PepcDB or PDB records

## MHIRTTTPVLTSLTSCNFGTASLGDTSPYCMALRPFPLGNTPLHAVIRRSAREFECVEAVPASNAVRSPSTASWVSAESLDSIISLANRTSEEMEVDQLIYRLCRSLYHVAKKKSAQIHCHPNHQERQQQQQQASSSGWRSVECEGHFSNMRGREDWCPLLHLFDPRSYYKVMGQPSQHDGCKLCGDVVGTESSPEGVSQWLMSELSVTRLTGGNSNHVYRLGHASFPKKAVLLRVYGDGGGGDVIDRARDIKVMRLMSKSEMGPGLLHTFHWGRVEEFMDGVLTCTTEKLLTSPSLLADVYGGLSKMHQLDYTPLLPENMRTKGMSNGHNSSQSVSDTVSKSGGGQEGPDGTVGGVNELESTCHTSFERVCLRLLRLVSLNVVEEHRHSLESWLAGEVMFVRRELQYRGIPVVLSHNDLNPGNILLSDGAGEASGTVFSDEELRVENTPLSKRYVTRKGKNMNLVERRGFLFIDFEYADANYRCFDLGNTLCELDYDYTRGTEAGGRGFIKYLFVFPPPAMEEAWRGLGEEYPRMPELIYDAWRRGVCDGSSDIGSVALLAVRRYFAERDNVPLETVELSEAQVGEVLLGMLASHLYWTIWSMTMGSAPDNCVECEDCDDQMFAVGGSGLDYMRYGECRLREYIALRGWLAEKGLLS
  soluble on expression in E. coli: not soluble

## MGSDKIHHHHHHMFNNHEIDTILSTLRMEADPSLHPLFEQFEKFYEEKLWFQLSESLTKFFDDAKSTPLRLRLYDNFVSKFYDKINQLSVVKYLLASLKDSKDFDESLKYLDDLKAQFQELDSKKQRNNGSKDHGDGILLIDSEIARTYLLKNDLVKARDLLDDLEKTLDKKDSIPLRITNSFYSTNSQYFKFKNDFNSFYYTSLLYLSTLEPSTSITLAERQQLAYDLSISALLGDKIYNFGELLHHPIMETIVNDSNYDWLFQLLNALTVGDFDKFDSLIKVQISKIPILAQHESFLRQKICLMTLIETVFVKNIRMLSFEDISKATHLPKDNVEHLVMRAISLGLLKGSIDQVNELVTISWVQPRIISGDQITKMKDRLVEWNDQVEKLGKKMEARGQSIWV
  soluble on expression in E. coli: not soluble

## MSETELRKRQAQFTRELHGDDIGKKTGLSALMSKNNSAQKEAVQKYLRNWDGRTDKDAEERRLEDYNEATHSYYNVVTDFYEYGWGSSFHFSRFYKGESFAASIARHEHYLAYKAGIQRGDLVLDVGCGVGGPAREIARFTGCNVIGLNNNDYQIAKAKYYAKKYNLSDQMDFVKGDFMKMDFEENTFDKVYAIEATCHAPKLEGVYSEIYKVLKPGGTFAVYEWVMTDKYDENNPEHRKIAYEIELGDGIPKMFHVDVARKALKNCGFEVLVSEDLADNDDEIPWYYPLTGEWKYVQNLANLATFFRTSYLGRQFTTAMVTVMEKLGLAPEGSKEVTAALENAAVGLVAGGKSKLFTPMMLFVARKPENAETPSQTSQEATQ
  soluble on expression in E. coli: soluble

## MHVIDLSYFVKIYRSKNKHFSVNFLRHLHRAGDLHLSGTTRCIYEDVIMKKCLTLLIATVLSGISLTAYAAQPMSNLDSGQLRPAGTVSATGASNLSDLEDKLAEKAREQGAKGYVINSAGGNDQMLGTATIYKLEHHHHHH
  soluble on expression in E. coli: not soluble

## ADGNNIKAPIETAVKPPHRTEDNIRDEARRNRSNAVNPFSAKYVPFNAAPGSTESYSLDEIVYRSRSGGLLDVEHDMEALKRFDGAYWRDLFDSRVGKSTWPYGSGVWSKKEWVLPEIDDDDIVSAFEGNSNLFWAERFGKQFLGMNDLWVKHCGISHTGSFKDLGMTVLVSQVNRLRKMKRPVVGVGCASTGDTSAALSAYCASAGIPSIVFLPANKISMAQLVQPIANGAFVLSIDTDFDGCMKLIREITAELPIYLANSLNSLRLEGQKTAAIEILQQFDWQVPDWVIVPGGNLGNIYAFYKGFKMCQELGLVDRIPRMVCAQAANANPLYLHYKSGWKDFKPMTASTTFASAIQIGDPVSIDRAVYALKKCNGIVEEATEEELMDAMAQADSTGMFICPHTGVALTALFKLRNQGVIAPTDRTVVVSTAHGLKFTQSKIDYHSNAIPDMACRFSNPPVDVKADFGAVMDVLKSYLGSNTLTS
  soluble on expression in E. coli: soluble

## MGNFYSLGKKEPVIRLLQITDCHLFSSESECLLGINTTETFQAVIEHIHQTDFAYDAVLATGDLIQDHNPEAYHRFAEMAKQFVKPLFWLEGNHDKQPQMSLYLGKHPHIQPEKQLLAGEKWQILLLNSQVAGAPSGYLSAGQLAWLNSKLAKHLDRYALVVLHHNILPTNSAWLDQHCLKNSEQLAKVLKSYRNVKAILHGHIHQEVDRVWQGYRVLATPSTCIQFKPNCRDFTLDMLPQGWREISLLEDGSIETTVKRLASNQFLPDFQSKGY
  soluble on expression in E. coli: not soluble

## MSLQKPKIAFIDDEPRILRSLKMHFRQSHDVFITTDASELMKYVSEHDVQVVISDQRMPDKQGTEVLRDIKAASPNTLRILLTGYADLNAVIDSVNEGEIYRYITKPWQNDELKQIVNKATEIAQQTQEITQNTEGHHHHHH
  soluble on expression in E. coli: not soluble

## MAHHHHHHMMKNTVRQFVKEITYLEVWEHFRRFGDAAGPDSVKCRLLCSDAVATQLNERIRMRYLLEQFLAQSSTTTSTGVAGEPRRWWEGDLTRCVDSDRRVLAETLLEDGWMLMQLNNCVSDREWLITTMTFQREKSTT
  soluble on expression in E. coli: not soluble

## MNEIIGKFAREGILIEDNAYFRLREMDDPASVSSELIVKIKSNGGKFTVLTSEMLDEFFEIDNPAEIKARGPLMVPAERDFDFEVISDTSNRSYTSGEIGDMIAYFNSRYSSLKNLLSKRPELKGHIPIADLRGGEDVVSIIGMVNDVRNTKNNHRIIELEDDTGEISVVVHNENHKLFEKSEKIVRDEVVGVHGTKKGRFVVASEIFHPGVPRIQEKEMDFSVAFISDVHIGSQTFLEDAFMKFVKWINGDFGSEEQRSLAADVKYLVVAGDIVDGIGIYPGQEKELLIRDIHEQYEEAARLFGDIRSDIKIVMIPGNHDSSRIAEPQPAIPEEYAKSLYSIRNIEFLSNPSLVSLDGVRTLIYHGRSFDDMAMSVNGLSHERSDLIMEELLEKRHLAPIYGERTPLASEIEDHLVIDEVPHVLHTGHVHINAYKKYKGVHLINSGTFQSQTEFQKIYNIVPTCGQVPVLNRGVMKLLEFSLEHHHHHH
  soluble on expression in E. coli: not soluble

## MVSDEDELNLLVIVVDANPIWWGKQALKESQFTLSKCIDAVMVLGNSHLFMNRSNKLAVIASHIQESRFLYPGKNGRLGDFFGDPGNPPEFNPSGSKDGKYELLTSANEVIVEEIKDLMTKSDIKGQHTETLLAGSLAKALCYIHRMNKEVKDNQEMKSRILVIKAAEDSALQYMNFMNVIFAAQKQNILIDACVLDSDSGLLQQACDITGGLYLKVPQMPSLLQYLLWVFLPDQDQRSQLILPPPVHVDYRAACFCHRNLIEIGYVCSVCLSIFCNFSPICTTCETAFKISLPPVLKAKKRN
  soluble on expression in E. coli: soluble

## EKIAHMAVSRGNGARLLVDGEATFAALFAALDAARHYVLIQFYIVRDDDLGLELRDRLIAAAQRGVKVRFLTDAIGSYGLSDNYIEDLRAAGIDIANPRKQRGPNTRFQVNYRNHRKTVVVDGQTGFIGGHNVGVEYLGQDPVMGRWRDTHVQITGPSVLQLQLVFAEDWHWARGEDLLDLLSWETRLDPQDADALIVATGPGDRTESGAMM
  soluble on expression in E. coli: not soluble

## GMTLPPYHTPLPAETLRALSIPAPWTFGLADRVRFGELDAIGHVNHTAYLRWYESFRLPFLKARHVTDYGPTSPRLVLKQVHCTYLAEMGMGEDYVITGRVSNFRTTSFTMEFACWRLGDAVECTSEGSAVVVLLNRDGSGRYPIPEAGRASFVTEDGVLAAG
  soluble on expression in E. coli: soluble

## FAKLVRPPVQIYGIEGRYATALYSAASKQNKLEQVEKELLRVGQILKEPKMAASLLNPYVKRSVKVKSLSDMTAKEKFSPLTSNLINLLAENGRLTNTPAVISAFSTMMSVHRGEVPCTVTTASALDETTLTELKTVLKSFLSKGQVLKLEVKIDPSIMGGMIVRIGEKYVDMSAKTKIQKLSRAMREIL
  soluble on expression in E. coli: soluble

## MNKNKPFIVVIVGPTASGKTELSIELAKRINGEIISGDSMQVYKHMNIGTAKVTPEEMDGIPHHLIDILNPDDTFSAYEFKRLAEDLITDITNRGKVPIIAGGTGLYIQSLIYNYELEDETVTPAQLSIVKQKLSALEHLDNQQLHDYLAQFDAVSAENIHPNNRQRVLRAIEYYLKTKKLLSNRKKVQQFTENYDTLLLGIEMSRKTLYSRINKRVDIMLDHGLFREVQQLVEQGYESCQSMQAIGYKELIPVINGQMIYEDAVNDLKQHSRQYAKRQMTWFKNKMSVHWLDKENMSLQMMLDEITTQIKMAGDPLEHHHHHH
  soluble on expression in E. coli: not soluble
